In patent US20140322196A1:

What was measured:
[1] = target: Hemagglutinin (HA) of Avian 29/05/06 H5N1 (inactivated vaccine) (Influenza A virus Avian 29/05/06 H5N1); assay: cell-based or functional assay
[2] = target: Hemagglutinin (HA) of Influenza SW [change] 1089/09 swine pandemic H1N1 (inactivated subunits, vaccine) (Influenza A virus SW [change] swine pandemic H1N1); assay: cell-based or functional assay

Binder	activity on viral hemagglutination (HI) [1] [pM]	activity on viral hemagglutination (HI) [2] [fM]
bLf C-lobe (aa 285-689) (protein) SFQLFGSPPGQRDLLFKDSALGFLRIPSKVDSALYLGSRYLTTLKNLRETAEEVKARYTRVVWCAVGPEEQKKCQQWSQQSGQNVTCATASTTDDCIVLVLKGEADALNLDGGYIYTAGKCGLVPVLAENRKSSKHSSLDCVLRPTEGYLAVAVVKKANEGLTWNSLKDKKSCHTAVDRTAGWNIPMGLIVNQTGSCAFDEFFSQSCAPGADPKSRLCALCAGDDQGLDKCVPNSKEKYYGYTGAFRCLAEDVGDVAFVKNDTVWENTNGESTADWAKNLNREDFRLLCLDGTRKPVTEAQSCHLAVAPNHAVVSRSDRAAHVKQVLLHQQALFGKNGKNCPDKFCLFKSETKNLLFNDNTECLAKLGGRPTYEEYLGTEYVTAIANLKKCSTSPLLEACAFLTR	2.9	46.5
bLf C-lobe (aa 345-689) (protein) VVWCAVGPEEQKKCQQWSQQSGQNVTCATASTTDDCIVLVLKGEADALNLDGGYIYTAGKCGLVPVLAENRKSSKHSSLDCVLRPTEGYLAVAVVKKANEGLTWNSLKDKKSCHTAVDRTAGWNIPMGLIVNQTGSCAFDEFFSQSCAPGADPKSRLCALCAGDDQGLDKCVPNSKEKYYGYTGAFRCLAEDVGDVAFVKNDTVWENTNGESTADWAKNLNREDFRLLCLDGTRKPVTEAQSCHLAVAPNHAVVSRSDRAAHVKQVLLHQQALFGKNGKNCPDKFCLFKSETKNLLFNDNTECLAKLGGRPTYEEYLGTEYVTAIANLKKCSTSPLLEACAFLTR	2.4	46.5
